# Assay results reported in paper PMC9352680, “A comprehensive thermodynamic model for RNA binding by the Saccharomyces cerevisiae Pumilio protein PUF4”.
# Substitutions are numbered along the chain they refer to. Names and notes keep the numbering of the source.
# T1: PUF4 RNA-binding domain (Saccharomyces cerevisiae, UniProt P25339 537-888)
# T1 sequence: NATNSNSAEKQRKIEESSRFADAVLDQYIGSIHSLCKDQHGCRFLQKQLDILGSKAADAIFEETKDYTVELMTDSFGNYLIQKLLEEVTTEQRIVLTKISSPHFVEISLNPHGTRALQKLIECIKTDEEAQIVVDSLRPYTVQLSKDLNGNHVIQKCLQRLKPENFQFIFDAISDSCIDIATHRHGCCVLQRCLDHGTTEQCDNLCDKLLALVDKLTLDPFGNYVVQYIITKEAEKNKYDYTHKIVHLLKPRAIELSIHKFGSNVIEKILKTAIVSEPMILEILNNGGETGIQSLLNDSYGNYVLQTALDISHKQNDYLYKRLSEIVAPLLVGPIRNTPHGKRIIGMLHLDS
# B1: Id_ii_S2_P4E.2_K4.1_C4.2_[C-2A]_[T-1C]_H4.1_A4.1_F4.1_T4.2_[G10T] (ssRNA)
# RNA: UUUGAUUAAUAUGAUAUCGUUCUUUCUACUGUAUAUUAUUUUCUUUCUCGAUAUCAUAUUAAUCUUU
# B2: Id_ii_S2_P4E.2_K4.1_C4.2_[C-2A]_[T-1A]_H4.1_A4.1_F4.1_T4.2_[G10T]_[T11C] (ssRNA)
# RNA: B1 RNA with C29A, U40C
# B3: Id_ii_S2_P4E.2_K4.1_C4.2_[T-1A]_H4.1_A4.1_F4.1_T4.2_[G10C] (ssRNA)
# RNA: B1 RNA with A28C, C29A, U39C
# B4: Id_ii_S2_P4E.2_K4.1_C4.2_[T-1A]_H4.1_A4.1_F4.1_T4.2_[G10A]_[T11G] (ssRNA)
# RNA: B1 RNA with A28C, C29A, U39A, U40G
# B5: Id_ii_S2_P4E.2_K4.1_C4.2_[C-2A]_H4.1_A4.1_F4.1_T4.2_[G10T]_[T11G] (ssRNA)
# RNA: B1 RNA with C29U, U40G
# B6: Id_ii_S2_P4E.2_K4.1_C4.2_H4.1_A4.1_F4.1_T4.2_[G10A]_[T11C] (ssRNA)
# RNA: B1 RNA with A28C, C29U, U39A, U40C
# B7: Id_ii_S2_P4E.3_K4.2_C4.2_[C-2G]_[T-1C]_H4.2_A4.1_F4.1_T4.2_[G10A]_[T11C] (ssRNA)
# RNA: B1 RNA with A28G, G31A, U39A, U40C
# B8: Id_ii_S2_P4E.3_K4.2_C4.2_[C-2G]_[T-1C]_H4.2_A4.1_F4.1_T4.2_[G10C]_[T11C] (ssRNA)
# RNA: B1 RNA with A28G, G31A, U39C, U40C
# B9: Id_ii_S2_P4E.2_K4.1_C4.2_[C-2A]_H4.1_A4.1_F4.1_T4.2_[G10A] (ssRNA)
# RNA: B1 RNA with C29U, U39A
# B10: Id_ii_S2_P4E.3_K4.2_C4.2_[C-2G]_H4.2_A4.1_F4.1_T4.2_[G10C] (ssRNA)
# RNA: B1 RNA with A28G, C29U, G31A, U39C
# B11: Id_ii_S2_P4E.3_K4.2_C4.2_[C-2G]_H4.2_A4.1_F4.1_T4.2_[G10T]_[T11G] (ssRNA)
# RNA: B1 RNA with A28G, C29U, G31A, U40G
# B12: Id_ii_S2_P4E.2_K4.1_C4.2_H4.1_A4.1_F4.1_T4.2_[G10A] (ssRNA)
# RNA: B1 RNA with A28C, C29U, U39A
# B13: Id_ii_S2_P4E.3_K4.2_C4.2_[C-2G]_[T-1C]_H4.2_A4.1_F4.1_T4.2_[G10T]_[T11G] (ssRNA)
# RNA: B1 RNA with A28G, G31A, U40G
# B14: Id_ii_S2_P4E.2_K4.1_C4.2_[T-1G]_H4.1_A4.1_F4.1_T4.2_[G10A]_[T11A] (ssRNA)
# RNA: B1 RNA with A28C, C29G, U39A, U40A
# B15: Id_ii_S2_P4E.2_K4.1_C4.2_[C-2A]_[T-1C]_H4.1_A4.1_F4.1_T4.2_[G10A]_[T11A] (ssRNA)
# RNA: B1 RNA with U39A, U40A
# B16: Id_ii_S2_P4E.2_K4.1_C4.2_[T-1A]_H4.1_A4.1_F4.1_T4.2_[G10C]_[T11C] (ssRNA)
# RNA: B1 RNA with A28C, C29A, U39C, U40C
# B17: Id_ii_S2_P4E.2_K4.1_C4.2_H4.1_A4.1_F4.1_T4.2_[G10C]_[T11C] (ssRNA)
# RNA: B1 RNA with A28C, C29U, U39C, U40C
# B18: Id_ii_S2_P4E.2_K4.1_C4.2_[T-1G]_H4.1_A4.1_F4.1_T4.2_[G10A] (ssRNA)
# RNA: B1 RNA with A28C, C29G, U39A
# B19: Id_ii_S2_P4E.2_K4.1_C4.2_[T-1G]_H4.1_A4.1_F4.1_T4.2_[G10A]_[T11G] (ssRNA)
# RNA: B1 RNA with A28C, C29G, U39A, U40G
# B20: Id_ii_S2_P4E.2_K4.1_C4.2_[T-1C]_H4.1_A4.1_F4.1_T4.2_[G10A]_[T11A] (ssRNA)
# RNA: B1 RNA with A28C, U39A, U40A
# B21: Id_ii_S2_P4E.2_K4.1_C4.2_[T-1C]_H4.1_A4.1_F4.1_T4.2 (ssRNA)
# RNA: B1 RNA with A28C, U39G
# B22: Id_ii_S2_P4E.3_K4.2_C4.2_[C-2G]_H4.2_A4.1_F4.1_T4.2_[G10T]_[T11A] (ssRNA)
# RNA: B1 RNA with A28G, C29U, G31A, U40A
# B23: Id_ii_S2_P4E.2_K4.1_C4.2_[T-1G]_H4.1_A4.1_F4.1_T4.2_[G10T] (ssRNA)
# RNA: B1 RNA with A28C, C29G
# B24: Id_ii_S2_P4E.2_K4.1_C4.2_[T-1C]_H4.1_A4.1_F4.1_T4.2_[G10A]_[T11G] (ssRNA)
# RNA: B1 RNA with A28C, U39A, U40G
# B25: Id_ii_S2_P4E.3_K4.2_C4.2_[C-2G]_[T-1C]_H4.2_A4.1_F4.1_T4.2_[G10A] (ssRNA)
# RNA: B1 RNA with A28G, G31A, U39A
# B26: Id_ii_S2_P4E.2_K4.1_C4.2_[T-1G]_H4.1_A4.1_F4.1_T4.2_[G10T]_[T11C] (ssRNA)
# RNA: B1 RNA with A28C, C29G, U40C
# B27: Id_ii_S2_P4E.2_K4.1_C4.2_[C-2A]_[T-1A]_H4.1_A4.1_F4.1_T4.2_[G10C]_[T11C] (ssRNA)
# RNA: B1 RNA with C29A, U39C, U40C
# Target: T1, PUF4 RNA-binding domain
# Assay: Mg; RNA-MaP; 20 mM Na-HEPES pH 7.4, 30 mM KOAc, 0.75 mM MgCl2, 0.1% Tween-20, 5% glycerol, 0.1 mg/mL BSA, 2 mM DTT; 25 C; 0.0125-409.6 nM protein
# Details: tags: N-His6-TEV cleaved; C-SNAP kept, Cy3B-labelled; label: tethered on chip by stalled RNA polymerase
row,Binder,Kd [nM]
1,UCUCUUUAUAUUAUUCUCUCUU (ssRNA) [Ib_S1_P5E.1_K5.1_C5.1_H5.1_[G2A]_A5.1_F5.1_[A10C]_T5.1],462
2,UCUCUUCGUAUUAUUCUCUCUU (ssRNA) [Ib_S1_P5E.1_K5.1_C5.1_H5.1_[T1C]_A5.1_F5.1_[A10C]_T5.1],> 2300
3,B1,0.296
4,B2,1.1
5,B3,0.716
6,B4,2.6
7,B5,0.705
8,B6,0.566
9,B7,57.7
10,B8,23.6
11,B9,0.782
12,B10,26.9
13,B11,11.2
14,B12,0.317
15,B13,29.1
16,B14,0.489
17,B15,0.702
18,B16,0.746
19,B17,0.362
20,B18,0.316
21,B19,1.7
22,B20,0.324
23,B21,0.166
24,B22,53.5
25,B23,0.195
26,B24,1.63
27,B25,16.7
28,B26,0.286
29,B27,2.15
